What was measured:
cross-linking = biological target: the molecule itself; assay: cross-linking
AUC = biological target: the molecule itself; assay: AUC

B1: His‐CT2 (domain or fragment, human, UniProt Q13563 680-968, looked up)
chain: INDTYSEVKSDLAQQKAEMELSDLIRKGYHKALVKLKLKKNTVDDISESLRQGGGKLNFDELRQDLKGKGHTDAEIEAIFTKYDQDGDQELTEHEHQQMRDDLEKEREDLDLDHSSLPRPMSSRSFPRSLDDSEEDDDEDSGHSSRRRGSISSGVSYEEFQVLVRRVDRMEHSIGSIVSKIDAVIVKLEIMERAKLKRREVLGRLLDGVAEDERLGRDSEIHREQMERLVREELERWESDDAASQISHGLGTPVGLNGQPRPRSSRPSSSQSTEGMEGAGGNGSSNVHV
cross-linking
  stoichiometry N: 4
AUC
  stoichiometry N: 2
